Consider three molecules from PMC10268231 (Nature, 2021).

Data set [1] concerns the target T1, CTC1;STN1;TEN1;POLA1 (p180);POLA2 (p70);PRIM1 (p49);PRIM2 (p58) (human;human;human;human;human;human;huma …, UniProt Q2NKJ3;Q9H668;Q86WV5;P09884;Q14181;P49642;P49643 …, ||||||). As to the kind of experiment: cryo-EM.
In data set [2] the target is T1, CTC1;STN1;TEN1;POLA1 (p180);POLA2 …. As to the kind of experiment: negative-stain EM.
Data set [3] shares this target. As to the kind of experiment: cryo-EM. The source holds these as a separate data set.

As to TTAGGGTTAGGGTTAGGG (ssDNA) [3xTEL], the binding result in data set [1] is “binds”.

For the molecule TTAGGGTTAGGGTTA (ssDNA) [(TTAGGG)2TTA 15-nt template], in data set [2], the binding result is given as “binds”. Regarding TTAGGGTTAGGGTTAGGGTTAGGGTTAGGGTTAGGG (ssDNA) [6xTEL], the binding result in data set [3] is recorded as “binds”.
